Reference: the supplement of paper PMC12042874
± gives the uncertainty stated by the source.

Test: amyloid nucleation score (Sup35N fusion, yeast selection) (log enrichment); library NNK2; higher = more nucleation; inactive = no reads after selection
Outline: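 Three technical output replicates were used for random libraries. Psi-negative yeast expressing peptides of 20 random codons fused to Sup35N were induced with 100 μM copper sulfate for 24 hours and grown 7 days at 30°C on medium lacking adenine and uracil, and input and output plasmid inserts were Illumina-sequenced, excluding sequences with under 100 input reads. The nucleation score is the DiMSum log enrichment of output over input reads, centred on the mode score of non-aggregating sequences.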

| Substance | amyloid nucleation score |
| --- | --- |
| CMFVIVKVCIVHGHIVSIAS | inactive |
| CMSTDTTLVATMMLQTESA | 0.441 ± 0.23 |
| CMVMGNERM | -0.011 ± 0.22 |
| CMVRLKPDFITALRLSLRGR | inactive |
| CNGRVKAYVSQNYVSEYGVL | -0.1 ± 0.2 |
| CNGYRKVHCLMTMSRWTYGR | 1.08 ± 0.1 |
| CNGYTKRRYTRYSYKWFAVA | -0.15 ± 0.45 |
| CNHIRSKVKVVVCTGHCAVF | 4.62 ± 0.11 |
| CNMGLRYTSYLI | -0.212 ± 0.34 |
| CNSHM | 2.9 ± 0.072 |
| CPCNGTNSLRLAYGYTGNNS | inactive |
| CPFSYEPNFPLIGRGNFAIW | -0.987 ± 1 |
| CPIRMLSKNGCSTHSFNMAW | 0.241 ± 0.8 |
| CPLPIVSFKTLINLNMMYKS | -0.269 ± 0.43 |
| CPNLNTFTLFPELGNLYLHR | 0.329 ± 0.8 |
| CQLLMFGSMYVHSYERGTYW | 2.67 ± 0.064 |
| CQMYWYFWPGVTRFAR | 8.633 ± 0.03 |
| CQTHPYYVICFQAVKKCWES | -0.899 ± 0.56 |
| CRCVR | 3.38 ± 0.077 |
| CRDLKFYAGTRWGKCCMYSA | -0.476 ± 0.32 |
| CREEDGLLDVSYKRSDMGGS | -0.267 ± 0.65 |
| CRFRGLRYNRWDQNDVFAGV | 0.349 ± 0.44 |
| CRRCTIGLISDRGVLAAEES | -0.403 ± 0.63 |
| CRRFSEYNVLCSDLNPIMVL | 0.404 ± 0.66 |
| CRVFWKLKKRSIMHLPFDSG | 1.32 ± 0.34 |

| Substance | amyloid nucleation score |
| --- | --- |
| CSALLYW | 1.29 ± 0.61 |
| CSCMDRFL | 1.41 ± 0.15 |
| CSCNRLDYWAVNGRARRFKL | 0.932 ± 0.81 |
| CSFNKTALIAFNSNGGEYEH | -2.66 ± 0.75 |
| CSGHNRYYPRRGMDQHMLVF | 0.266 ± 0.2 |
| CSHITYQMCFILLNTAYFSH | -0.159 ± 1.1 |
| CSIMFIG | 0.858 ± 0.47 |
| CSIPFSVWDCLSWYCKNIRI | -1.46 ± 0.62 |
| CSITRLGSVHYLSRYIFV | 3.74 ± 0.083 |
| CSKRSQTKVITHICARGEVS | 0.827 ± 0.28 |
| CSLLVTLWE | 0.554 ± 0.23 |
| CSSFTQGCKCSF | -0.139 ± 0.37 |
| CSSRNILDWKFVFFVCYFT | 3.41 ± 0.12 |
| CTFPALSLPGPVSTQQSSGQ | 3.47 ± 0.06 |
| CTIIFNLLLAD | 7.396 ± 0.055 |
| CTLLTNITLFRGLHGTKFFC | 2.43 ± 0.14 |
| CTNMREFKGSLKAHIVLVVV | -0.479 ± 0.32 |
| CTPDLLSVNFDVVVLQW | -0.58 ± 0.55 |
| CTTFSFADIEFVMKRTRAIL | inactive |
| CVFPRFYIHDFSTLGTMYTL | 4.24 ± 0.12 |
| CVKKEIMLFAFDALKSLLGR | -0.742 ± 1.1 |
| CVLHEPLYS | -0.432 ± 0.3 |
| CVLMAMNFRCLNSTETTLLG | inactive |
| CVNVTLASFQVLNNPLHRSF | 4.896 ± 0.041 |
| CVPVYVKRIECHLPSGCTAV | -0.345 ± 0.3 |

| Substance | amyloid nucleation score |
| --- | --- |
| CVRDTLIETFHSVFNPHRRV | 0.983 ± 0.29 |
| CVSGNMYRLGVINW | 0.156 ± 0.29 |
| CWFGCVPDLTTGLGASCGRD | 0.606 ± 0.2 |
| CWFSTTGYDPLEPSFNLVLR | -1.58 ± 0.54 |
| CWFYVMGLWHVLLLCWS | inactive |
| CWKVREENRVVRCTHSYFLE | -1.03 ± 0.55 |
| CWLEKLGGSRCFNFNDNKLP | -1.19 ± 0.75 |
| CWQMRGKLFHS | 0.983 ± 0.14 |
| CWRRDNNRGCARRSGVAPAK | 0.495 ± 0.24 |
| CYHSQNDCHKVTWCFPYLAH | -0.449 ± 0.44 |
| CYLLN | -0.805 ± 0.44 |
| CYNALWLFGNHAKTAHGLGH | 0.709 ± 0.48 |
| CYRDMALGGCNVNVQLFVEA | -0.049 ± 0.54 |
| CYRNAT | 0.475 ± 0.2 |
| CYSLYLRS | -0.018 ± 1.1 |
| DAGDVRQVKEAGLMAGS | 0.527 ± 0.21 |
| DALVFSPCRALWTLLSVCEG | 0.896 ± 0.3 |
| DAVDFGISVSIHRSVREGWR | 4.89 ± 0.11 |
| DAYQEKCLCFVHRCYAQGRC | 0.163 ± 0.39 |
| DCHRNGSFRGKDGDVLYRSS | -0.397 ± 0.78 |
| DCHSMQFVVSFNT | -0.705 ± 1.1 |
| DCNTCKDKPWNAINQPNKKA | 0.121 ± 0.23 |
| DDERYDVPLWSFGVRYYISG | -0.384 ± 0.54 |
| DDFRQVKREDWHWSLSAVLF | 0.36 ± 0.62 |
| DDRIGSRVYVRVMNTKFFIK | 6.406 ± 0.045 |

| Substance | amyloid nucleation score |
| --- | --- |
| DDYVWCSYRLMFKSSHEALL | -1.24 ± 1.1 |
| DEMVDAFYYSAM | 0.35 ± 0.8 |
| DENFHAEGWRCFVYPFY | -0.373 ± 0.27 |
| DFCRQLWTKNKNVLRFICNS | -0.342 ± 1 |
| DFFRRFI | -0.742 ± 0.48 |
| DFMIKSISVLFTVSISSNRV | -1.69 ± 0.73 |
| DFPRRWSWFITRESWGVWRT | 1.65 ± 0.34 |
| DFTFWCEYSSSPVKKYVIDC | 0.736 ± 0.18 |
| DFVIESLNMYYWCTRGVVKK | inactive |
| DFWTARFGIGCCGVPCDRFF | -0.507 ± 0.79 |
| DFYACTWKDSCCGHEGRSAC | 0.634 ± 0.43 |
| DGDLTLNWVRSRLPLKNFRG | 0.144 ± 0.54 |
| DGEYPHQYSLEVLLLRLRH | 5.071 ± 0.049 |
| DGFRVCDMFGHAWGVENIPF | 0.086 ± 0.31 |
| DGGNDWRTKYSGTPVVWGTV | 1.73 ± 0.13 |
| DGSDREPKVSALWLHVRRTA | 2.17 ± 0.13 |
| DGTYISKVNSRCVEDGARPR | 1.38 ± 0.34 |
| DGVCYSRVNYIPISMHVVYR | 4.87 ± 0.08 |
| DGVSAFVCTFRDAVVRSAME | 4.29 ± 0.045 |
| DGYIELS | 0.302 ± 0.41 |
| DHFYWSNLGG | inactive |
| DHMRHGCGYHLWFSGLSWRF | inactive |
| DHVYICSSFAPKSTAMLC | 1.55 ± 0.38 |
| DIFALYFA | -1.16 ± 0.63 |
| DIIFVDALMSVTSVQQNLH | -0.388 ± 0.55 |

| Substance | amyloid nucleation score |
| --- | --- |
| DIMLAPHNSVDNGSRKEYGA | 0.424 ± 0.64 |
| DIMYPYWMVR | -0.667 ± 0.76 |
| DIPPKDLLGVFIDDEIREYC | -0.436 ± 0.76 |
| DIRCDLGRVFN | -0.17 ± 0.79 |
| DIRSRINMLRYTFF | inactive |
| DIYLLKIDRSGKCWPTTVDL | -0.067 ± 0.41 |
| DKGWLANDNLDKDLHQIPYA | 0.515 ± 0.35 |
| DKHYINASVSHEPSKNR | -0.724 ± 0.46 |
| DKPTCETTV | -0.659 ± 0.49 |
| DKPVSTH | -0.861 ± 1 |
| DKRPALFVYSVCRVSSIR | -1.26 ± 0.49 |
| DKSAVMVFNRRYVPWFGIRY | inactive |
| DKSSMYSSTMRPL | 0.06 ± 0.65 |
| DKVFDLTQMGFL | inactive |
| DKYGFSSVSGVTEDFVDGLM | 0.736 ± 0.6 |
| DLAPLLR | 0.132 ± 0.56 |
| DLDFIKDLTAKLY | -0.183 ± 1 |
| DLKRTFR | -0.487 ± 0.79 |
| DLLGIEPTTVCFYFDTDIRH | 2.9 ± 0.07 |
| DLRRDQRATTERGRVPVVKH | 4.817 ± 0.045 |
| DLTCRTSLSRGWKVLASSNG | 0.413 ± 0.31 |
| DLTHWSANSTCSSCVEFHLR | 3.99 ± 0.086 |
| DLVYDCKGFCIRLLLG | -1.63 ± 1 |
| DLYVLSWLYLGGEPNCVRF | 0.446 ± 0.26 |
| DMFRWNSYCSIVMLYCYAYD | 4.62 ± 0.063 |
